The results in this text go back to patent US20240116985A1 (published 2024).

Starred links: 1 amine or outer side, 2 acyl side, 3 side chain; linkers in the order of their positions; H or OH if unused. Positions of bridges follow the written chain, without caps; N, C: chain ends. Non-standard residues stand in square brackets, D forms with d. Primed or numbered codes have the meaning given here. No end group written: not given here. *: point of attachment. PyrS2″ = (S)-3-amino-1-((pent-4-en-1-yloxy)carbonyl)pyrrolidine-3-carboxylic acid (stapling residue), C=CCCCOC(=O)N1CC[C@@](N[*:1])(C(=O)[*:2])C1; B5(4) = 2,2-bis(4-pentenyl)glycine = 2-amino-2-(pent-4-en-1-yl)hept-6-enoic acid (stitching residue), C=CCCCC(CCCC=C)(N[*:1])C(=O)[*:2]; B5(21) = 2-amino-2-(pent-4-en-1-yl)hept-6-enoic acid, bis(4-pentenyl)glycine (stitching residue), C=CCCCC(CCCC=C)(N[*:1])C(=O)[*:2]; TfeGA = (S)-2-amino-3-((carboxymethyl)(2,2,2-trifluoroethyl)amino)propanoic acid, O=C([C@H](CN(CC(=O)[*:3])CC(F)(F)F)N[*:1])[*:2]; PyrS2 = (S)-3-amino-1-((pent-4-en-1-yloxy)carbonyl)pyrrolidine-3-carboxylic acid, C=CCCCOC(=O)N1CC[C@@](N[*:1])(C(=O)[*:2])C1; B5(3) = 2,2-bis(4-pentenyl)glycine (stitching residue), C=CCCCC(CCCC=C)(N[*:1])C(=O)[*:2]; B5 = 2-amino-2-(pent-4-en-1-yl)hept-6-enoic acid, C=CCCCC(CCCC=C)(N[*:1])C(=O)[*:2]; Phe(3-COOH) = N[C@@H](Cc1cccc(C(=O)O)c1)C(=O)O; 2F3MeF = Cc1cccc(C[C@H](N[*:1])C(=O)[*:2])c1F; Phe(2-CF3) = N[C@@H](Cc1ccccc1C(F)(F)F)C(=O)O; Phe(3,4-F2) = N[C@@H](Cc1ccc(F)c(F)c1)C(=O)O; Phe(2-Cl) = N[C@@H](Cc1ccccc1Cl)C(=O)O; Bta = N[C@@H](Cc1csc2ccccc12)C(=O)O; αAllylPro = C=CC[C@@]1(C(=O)O)CCCN1; tBuAla = CC(C)(C)C[C@H](N)C(=O)O; 3Thi = N[C@@H](Cc1ccsc1)C(=O)O; PyrS2(4) = not defined here; Ms = CS(=O)(=O)*

The labels stand for the following.
T1: Bcat-Halo (UniProt P35222 1-781)
T1 sequence (looked up): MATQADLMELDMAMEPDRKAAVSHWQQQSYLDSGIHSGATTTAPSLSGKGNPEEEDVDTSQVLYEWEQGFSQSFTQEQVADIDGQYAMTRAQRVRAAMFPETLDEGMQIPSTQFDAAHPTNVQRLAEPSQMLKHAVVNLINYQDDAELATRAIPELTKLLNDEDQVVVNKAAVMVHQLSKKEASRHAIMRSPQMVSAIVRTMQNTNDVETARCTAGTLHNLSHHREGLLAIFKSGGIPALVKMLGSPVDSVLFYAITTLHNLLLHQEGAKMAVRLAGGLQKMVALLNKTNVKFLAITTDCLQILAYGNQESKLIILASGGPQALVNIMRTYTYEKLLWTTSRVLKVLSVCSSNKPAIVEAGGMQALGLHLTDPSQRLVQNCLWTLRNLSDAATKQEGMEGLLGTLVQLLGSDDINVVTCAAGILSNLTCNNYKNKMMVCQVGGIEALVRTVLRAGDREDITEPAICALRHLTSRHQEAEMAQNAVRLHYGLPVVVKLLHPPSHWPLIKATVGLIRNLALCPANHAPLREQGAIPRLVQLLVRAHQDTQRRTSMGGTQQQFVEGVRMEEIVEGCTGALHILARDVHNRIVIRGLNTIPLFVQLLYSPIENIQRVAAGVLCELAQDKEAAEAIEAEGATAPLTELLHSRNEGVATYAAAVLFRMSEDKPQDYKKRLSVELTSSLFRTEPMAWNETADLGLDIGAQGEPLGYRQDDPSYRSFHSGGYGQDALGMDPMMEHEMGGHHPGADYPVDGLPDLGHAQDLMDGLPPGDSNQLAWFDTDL

T2: beta-catenin (in DLD1 TCF/LEF luciferase reporter cells) (UniProt P35222 1-781)
T2 sequence (looked up): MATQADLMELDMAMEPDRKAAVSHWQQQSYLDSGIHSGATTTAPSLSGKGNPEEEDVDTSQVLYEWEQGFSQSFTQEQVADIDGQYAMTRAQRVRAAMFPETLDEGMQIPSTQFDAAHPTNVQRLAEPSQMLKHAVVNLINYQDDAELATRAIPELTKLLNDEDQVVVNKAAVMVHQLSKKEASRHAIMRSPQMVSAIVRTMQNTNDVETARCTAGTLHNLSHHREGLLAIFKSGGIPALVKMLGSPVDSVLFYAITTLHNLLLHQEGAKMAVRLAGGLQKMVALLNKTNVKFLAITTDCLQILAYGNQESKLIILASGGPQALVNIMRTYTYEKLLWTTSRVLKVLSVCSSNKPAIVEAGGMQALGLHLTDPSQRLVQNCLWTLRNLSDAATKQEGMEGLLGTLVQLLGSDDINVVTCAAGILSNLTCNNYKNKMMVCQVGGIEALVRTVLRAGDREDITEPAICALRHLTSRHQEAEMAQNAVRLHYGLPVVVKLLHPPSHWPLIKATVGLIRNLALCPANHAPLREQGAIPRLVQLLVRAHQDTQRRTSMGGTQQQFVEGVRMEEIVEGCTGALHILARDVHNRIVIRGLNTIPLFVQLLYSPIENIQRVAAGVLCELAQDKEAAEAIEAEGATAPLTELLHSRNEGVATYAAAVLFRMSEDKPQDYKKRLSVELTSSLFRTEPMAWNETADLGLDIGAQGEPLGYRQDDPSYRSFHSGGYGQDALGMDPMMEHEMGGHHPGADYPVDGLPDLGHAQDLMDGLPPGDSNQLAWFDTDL

T3: B-cat-Halo (beta-catenin HaloTag fusion expressed in HEK293 cells) (UniProt P35222 1-781)
T3 sequence (looked up): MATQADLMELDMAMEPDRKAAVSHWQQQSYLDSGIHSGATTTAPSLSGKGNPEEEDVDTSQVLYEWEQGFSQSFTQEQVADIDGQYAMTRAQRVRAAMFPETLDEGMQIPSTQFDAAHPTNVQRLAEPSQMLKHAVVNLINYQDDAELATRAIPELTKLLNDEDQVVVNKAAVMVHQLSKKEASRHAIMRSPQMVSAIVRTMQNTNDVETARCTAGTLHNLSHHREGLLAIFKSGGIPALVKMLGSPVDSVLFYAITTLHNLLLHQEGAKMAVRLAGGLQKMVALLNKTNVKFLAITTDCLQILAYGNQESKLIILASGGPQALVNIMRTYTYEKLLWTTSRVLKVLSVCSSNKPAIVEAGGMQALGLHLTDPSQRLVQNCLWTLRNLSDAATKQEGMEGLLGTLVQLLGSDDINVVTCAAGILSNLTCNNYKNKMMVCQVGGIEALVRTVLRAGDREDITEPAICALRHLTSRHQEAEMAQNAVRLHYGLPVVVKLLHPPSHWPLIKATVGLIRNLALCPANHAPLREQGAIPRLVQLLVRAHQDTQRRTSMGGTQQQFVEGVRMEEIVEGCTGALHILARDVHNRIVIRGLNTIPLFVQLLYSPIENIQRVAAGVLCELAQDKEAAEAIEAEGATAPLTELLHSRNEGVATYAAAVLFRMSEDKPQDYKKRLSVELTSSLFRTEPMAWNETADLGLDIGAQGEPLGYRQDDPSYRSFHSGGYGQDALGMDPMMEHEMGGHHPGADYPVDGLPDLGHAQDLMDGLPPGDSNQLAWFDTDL

B1: I-1418 (peptide)
peptide: Ac-[αAllylPro]DL[B5(4)]DDAAFL[PyrS2″][Phe(2-Cl)][Bta]L-NH2
modifications: staple 1-4, 4-11; also: staple isomer composition of earlier HPLC peak
notes: Stapled peptide; staple isomer composition of the earlier HPLC peak
B2: I-1427 (peptide)
peptide: Ac-[αAllylPro]D[tBuAla][B5(4)]DDAAFL[PyrS2][3Thi][Phe(3,4-F2)]Q-NH2
modifications: staple 1-4, 4-11
B3: I-1414 (peptide)
peptide: Ac-[αAllylPro]DS[B5(21)]DDAAFL[PyrS2″][3Thi][Bta]L-NH2
modifications: staple 1-4, 4-11
B4: I-1431 (peptide)
peptide: Ac-[αAllylPro]D[tBuAla][B5(4)]DDAAFL[PyrS2][3Thi]WQ-NH2
modifications: staple 1-4, 4-11
B5: I-1428 (peptide)
peptide: Ac-[αAllylPro]D[tBuAla][B5(4)]DDAAFL[PyrS2][3Thi][Phe(3,4-F2)]S-NH2
modifications: staple 1-4, 4-11
B6: I-1338 (peptide)
peptide: [αAllylPro]D[tBuAla][B5(4)]D[Phe(3-COOH)]AAFF[PyrS2″][Phe(2-Cl)][Bta]Q-NH2
modifications: staple 1-4, 4-11
B7: I-1335 (peptide)
peptide: [αAllylPro]D[tBuAla][B5(4)]D[Phe(3-COOH)]AAFL[PyrS2(4)][2F3MeF][Bta]Q-NH2
modifications: staple 1-4, 4-11; not fully specified; reading uncertain
B8: I-1341 (peptide)
peptide: [αAllylPro]D[tBuAla][B5(4)]D[Phe(3-COOH)]AAFF[PyrS2″][Phe(2-CF3)][Bta]Q-NH2
modifications: staple 1-4, 4-11
B9: I-1333 (peptide)
peptide: [αAllylPro]D[tBuAla][B5]D[Phe(3-COOH)]AAFL[PyrS2][Phe(2-Cl)][Bta]S-NH2
modifications: staple 1-4, 4-11
B10: I-1336 (peptide)
peptide: [αAllylPro]D[tBuAla][B5]D[Phe(3-COOH)]AAFL[PyrS2][Phe(2-CF3)][Bta]S-NH2
modifications: staple 1-4, 4-11
B11: I-1332 (peptide)
peptide: [αAllylPro]D[tBuAla][B5(4)]D[Phe(3-COOH)]AAFL[PyrS2″][Phe(2-Cl)][Bta]Q-NH2
modifications: staple 1-4, 4-11
B12: MeSO2-PL3-Asp-Npg-B5-Asp-TfeGA-Ala-Ala-Phe-Asn-PyrS2-3Thi-BztA-Gln-NH2 (peptide)
peptide: Ms-[αAllylPro]D[tBuAla][B5(3)]D[TfeGA]AAFN[PyrS2″][3Thi][Bta]Q-NH2
modifications: staple 1-4, 4-11
B13: MeSO2-PL3-Asp-Npg-B5-Asp-Asp-Ala-Ala-Phe-Asn-PyrS2-3Thi-BztA-Gln-NH2 (peptide)
peptide: Ms-[αAllylPro]D[tBuAla][B5(3)]DDAAFN[PyrS2″][3Thi][Bta]Q-NH2
modifications: staple 1-4, 4-11
B14: Ac-PL3-Asp-Npg-B5-Asn-Asp-Ala-Ala-Phe-Asn-PyrS2-3Thi-BztA-Gln-NH2 (peptide)
peptide: Ac-[αAllylPro]D[tBuAla][B5(3)]NDAAFN[PyrS2″][3Thi][Bta]Q-NH2
modifications: staple 1-4, 4-11
B15: Ac-PL3-Asn-Npg-B5-Asp-Asp-Ala-Ala-Phe-Leu-PyrS2-3Thi-BztA-Gln-NH2 (peptide)
peptide: Ac-[αAllylPro]N[tBuAla][B5(3)]DDAAFL[PyrS2″][3Thi][Bta]Q-NH2
modifications: staple 1-4, 4-11

The target in the first test is T1, Bcat-Halo. The test is described as follows: cell-based or functional assay.
For B1, the “NanoBRET Abs IC50” value is > 20 µM.
Still for that read-out and setting: under B2 stands 30.4 µM; under B3, > 20 µM.
As to B4, the “NanoBRET Abs IC50” value was found to be 14.6 µM.
Turning to B5, the “NanoBRET Abs IC50” value was 40.2 µM.

The next test deals with T2, beta-catenin (in DLD1 TCF/LEF …). In words: cell-based or functional assay.
On to B6, for which the “DLD1 4% Abs IC50” value was determined as 3.4 µM.
Still for that read-out and setting: under B7 stands 0.9 µM; under B8, 3.2 µM; under B9, 1.2 µM.
For B10, the “DLD1 4% Abs IC50” value was 0.7 µM.
Still for that read-out and setting: under B11 stands 0.9 µM.

A further test deals with T3, B-cat-Halo (beta-catenin HaloTag fusion …). In words: cell-based or functional assay.
As to B12, the “NanoBRET Abs IC50” value was > 20 µM.
On the same count and under the same terms, under B13 stands > 20 µM.
On the same count and under the same terms, under B14 stands 27.8 µM; under B15, 23.4 µM.
